According to patent US20190202901A1 (PIERRE FABRE MEDICAMENT, published 2019):
Numbering of substitutions follows the chain as printed.

B1: c213B10 (antibody, human IgG1, kappa)
heavy: not shown
light: DIQMTQTTSSLSASLGDRVTISCRASQDISKYLNWYQQQPDGTIKLLIYYTSRLHSGVPSRFSGRGSGTDYSLTITNLEQEDIATYFCQQGSALPYTFGGGTKLEIKRTVAAPSVFIFPPSDEQLKSGTASVVCLLNNFYPREAKVQWKVDNALQSGNSQESVTEQDSKDSTYSLSSTLTLSKADYEKHKVYACEVTHQGLSSPVTKSFNRGEC
notes: also called chimeric 213B10
B2: c208F2 (antibody, human IgG1, kappa, V domains shown)
VH: QVQLQQSGPELVKPGASVKMSCKASGYTFTSYYIYWVKQRPGQGLEWLGWIWPGDGSTKYNEKFKDKTTLTADKSSNTAYMFLSSLTSEDSAVYFCASPMITPNYAMDYWGQGASVTVSS
VL: DIQMTQTTSSLSASLGDRVTISCRASQDISKYLNWYQQQPDGTIKLLIYYTSRLHSGVPSRFSGRGSGTDYSLTISNVEQEDIATYFCQQGSTLPYTFGGGTKLEIKR
notes: also called chimeric 208F2; chimeric form of the 208F2 second IGF-1R antibody
B3: m212A11 (murine 212A11, hybridoma CNCM I-4773) (antibody, V domains shown)
VH: B2 VH with Y35H, L48I, D66G, N77S
VL: DIQMTQTTSSLSASLGDRVTISCRASQDINKYLNWYQQQPDGTVKLLIYYTSRLHSGVPSRFSGRGSGTDYSLTISNLEQEDIATYFCQQGSTLPYTFGGGTKLEIK
B4: c212A11 (antibody, human IgG1, kappa, V domains shown)
VH: B2 VH with Y35H, L48I, D66G, N77S
VL: B2 VL with S30N, I44V, V78L
notes: also called chimeric 212A11
B5: m213B10 (murine 213B10, hybridoma CNCM I-4774) (antibody, V domains shown)
VH: B2 VH with P9S, Y35H, L48I, K63R, D66G, N77S
VL: B3 VL with N30S, V44I, S76T, T93A
B6: c214F8 (antibody, human IgG1, kappa)
heavy: not shown
light: B1 light with I21F
notes: also called chimeric 214F8
B7: c219D6 (antibody, human IgG1, kappa, V domains shown)
VH: B2 VH with A16D, T28S, Y33F, Y35H, L48I, D66G, A72T, N77S, S84N
VL: B2 VL with I44V, V78L
notes: also called chimeric 219D6
B8: m219D6 (murine 219D6, hybridoma CNCM I-4736) (antibody, V domains shown)
VH: B2 VH with A16D, T28S, Y33F, Y35H, L48I, D66G, A72T, N77S, S84N
VL: B3 VL with N30S
B9: m208F2 (murine 208F2, hybridoma CNCM I-4757) (antibody, V domains shown)
VH: B2 VH
VL: B3 VL with N30S, V44I, L78V
B10: m214F8 (murine 214F8, hybridoma CNCM I-4775) (antibody, V domains shown)
VH: B2 VH with P9S, M20L, Y35H, L48I, K63R, D66G, N77S
VL: B3 VL with I21F, N30S, V44I, S76T, T93A
B11: 810D12 (antibody, V domains shown)
VH: EVQLQQSGPELVKPGASVKMSCKASGHTFTSYMLHWVKQKPGQGLEWLGFINPYNDVTKYNENFKGKATLTSDKSSSTAYMELNSLTSEDSAVYFCVTTAYYGNGRYFDVWGAGTTVTVSS
VL: DIQMTQTTSSLSASLGDRVTISCRASQDITNYLTWYQQKPDGTVKVLIYYTSRLYSGVPSRFSGSGSGSDYSLTINNLEQEDIATYFCQQGYSLPWTFGGGTKLEIK
notes: Murine monoclonal antibody from hybridoma CNCM I-4893; also called m810D12; I-4893
B12: 816C12 (antibody, V domains shown)
VH: EVQLQQSGPELVKPGASVKMSCKASGHTFTSYVLHWMKRKPGQGLEWIGYINPHNDVTKYNENFKGKATLTSDKYSSTVYMEVSSLTSEDSAVYYCVSTAYYGNGRYFDVWGAGTTVTVSS
VL: B3 VL with K31N, Q39K, P59S, R65S, S92N, Y96W
notes: Murine monoclonal antibody from hybridoma CNCM I-4894; also called m816C12; I-4894

Biological target: T1, human IGF-1R, native, on cells (MCF-7, hIGF-1R transfected cells, tumor sections, primary normal cells) (human, UniProt P08069 31-1367)
Test: cell-based or functional assay

phosphorylation of hIGF-1R, % of phosphorylation induced by IGF-1 (MCF-7 cells, 10 µg/ml)	decrease of IGF1-induced phosphorylation of hIGF-1R (MCF-7 cells)	Binder
< 10%	–	B1
< 10%	–	B2
–	80%	B3
< 10%	–	B4
–	80%	B5
< 10%	–	B6
< 10%	–	B7
–	80%	B8
–	80%	B9
–	80%	B10

Biological target: T2, recombinant human Insulin Receptor protein (R&D Systems, Cat 1544-IR/CF) (human, UniProt P06213-2 28-944)
T2 construct: Bought protein coated on ELISA plates; also called rhIR; rh Insulin R
T2 sequence (P06213 other isoform, or with tags, fused parts or gaps limits assumed): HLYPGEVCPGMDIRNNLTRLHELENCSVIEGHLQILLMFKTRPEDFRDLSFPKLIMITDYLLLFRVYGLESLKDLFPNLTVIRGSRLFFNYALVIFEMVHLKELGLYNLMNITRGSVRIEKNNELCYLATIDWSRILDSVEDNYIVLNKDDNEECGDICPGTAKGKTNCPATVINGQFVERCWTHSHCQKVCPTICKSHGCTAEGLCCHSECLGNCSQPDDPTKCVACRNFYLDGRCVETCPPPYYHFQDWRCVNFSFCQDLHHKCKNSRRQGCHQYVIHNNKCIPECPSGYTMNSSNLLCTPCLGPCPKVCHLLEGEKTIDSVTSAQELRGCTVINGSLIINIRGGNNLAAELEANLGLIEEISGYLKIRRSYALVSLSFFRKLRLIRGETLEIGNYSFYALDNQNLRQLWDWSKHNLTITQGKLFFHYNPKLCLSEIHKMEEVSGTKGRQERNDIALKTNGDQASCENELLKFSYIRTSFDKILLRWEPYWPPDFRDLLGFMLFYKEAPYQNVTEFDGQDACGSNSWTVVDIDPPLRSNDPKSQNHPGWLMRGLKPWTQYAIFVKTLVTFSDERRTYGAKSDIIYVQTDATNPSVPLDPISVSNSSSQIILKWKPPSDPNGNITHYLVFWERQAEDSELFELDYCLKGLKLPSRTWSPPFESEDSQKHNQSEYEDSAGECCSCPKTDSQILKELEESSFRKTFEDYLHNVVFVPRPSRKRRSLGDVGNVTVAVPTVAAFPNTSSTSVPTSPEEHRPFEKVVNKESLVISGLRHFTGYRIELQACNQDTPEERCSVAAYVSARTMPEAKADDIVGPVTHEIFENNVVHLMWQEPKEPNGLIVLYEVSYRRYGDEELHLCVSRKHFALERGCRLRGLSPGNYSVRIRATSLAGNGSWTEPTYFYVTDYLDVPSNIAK
Test: direct ELISA, coated rhIR
Experimental: In all direct ELISAs, proteins of interest were immobilized (1 μg/ml) to the bottom of each well. After saturation, hybridoma supernatants were added to the wells. After a 1-hour incubation period and a washing step, a solution of goat anti-mouse IgG—HRP labelled polyclonal antibody was used for detection, prior to the addition of the TMB substrate. The reaction was stopped with a 1M H₂SO₄ solution before reading the OD with a spectrophotometer at a 450 nm wavelength.

binding result	Binder
no binding (tested: 5 µg/ml)	B11
no binding (tested: 5 µg/ml)	B12

Biological target: T1, human IGF-1R, native, on cells (MCF-7, …)
Test: cell-based or functional assay
Remark: another data set of the same source

MFI 37°C (MCF7 internalisation assay)	Binder
115 MFI	B5
94 MFI	B9
111 MFI	B10

Biological target: T1, human IGF-1R, native, on cells (MCF-7, …)
Test: cell-based or functional assay
Remark: another data set of the same source

ΔMFI (MCF-7, 10 µg/ml, 4 h)	Binder
369 MFI	B1
288 MFI	B2
322 MFI	B4
403 MFI	B6
353 MFI	B7

Biological target: monkey IGF-1R on COS-7 cells (monkey (African green monkey))
Test: cell-based or functional assay

% internalisation (monkey IGF-1R)	ΔMFI (monkey IGF-1R internalization)	Binder
73%	101 MFI	B1
67%	52 MFI	B2
73%	83 MFI	B3
75%	98 MFI	B4
74%	84 MFI	B5
72%	98 MFI	B6
74%	102 MFI	B7
71%	80 MFI	B8
74%	53 MFI	B9
71%	76 MFI	B10

Biological target: T1, human IGF-1R, native, on cells (MCF-7, …)
Test: cell-based or functional assay
Remark: another data set of the same source

% internalization (MCF-7, 10 µg/ml, 4 h)	ΔMFI (MCF-7, 10 µg/ml, 4 h)	Binder
82%	278 MFI	B2
88%	294 MFI	B9

Biological target: T3, soluble recombinant human IGF-1R hetero-tetramer with C-terminal 10-His tag (R&D Systems 305-GR-50) (human, UniProt P08069 31-736; P08069 741-932)
T3 construct: domain: alpha chain;domain: extracellular domain of the beta chain; Captured on an anti-His antibody chip; also called recombinant soluble human-IGF-1R; h-IGF-1R
Test: SPR Biacore X100, Ln(2)/koff
Experimental: (§1) The dissociation constants (KD) of the binding of the antibodies on a recombinant soluble human-IGF-1R were defined by the ratio between the dissociation rate (koff) and the association rate (kₒₙ). The kinetic experiments were run on a Biacore X100 device using a CM5 sensor chip activated by a mouse anti-Tag His monoclobnal antibody. Around 12000 RU of antibodies are chemically grafted on the carboxymethyldextan matrix using the amine kit chemistry.
(§2) The experiments were carried out at 25° C. with a flow rate of 30 μl/min using the HBS-EP+ buffer (GE Healthcare) as the running and sample dilution buffer.
The single cycle kinetic scheme was used to define the kinetic parameters of the binding of the anti-IGF-1R antibodies on a soluble recombinant human IGF-1R captured by its two C-terminal 10 Histidine-tag. [0637] 1—A solution of a soluble recombinant version of the human IGF-1R hetero-tetramere: 2a chains and the extracellular domains of 2β chains expressed with an additional C-terminal 10-His tag (R&D Systems catalogue number 305-GR-50) was injected during one minute on the second flowcell at a concentration of 10 μg/ml. […] [0638] 2—After the capture phase, either the running buffer was injected 5 times (90 s each injection) or a growing range of 5 concentrations of one of the six antibodies was injected (90 s each injection) on both flowcells. […]

half-life of the complex	Binder
2 to 3 h	B2

Biological target: T3, soluble recombinant human IGF-1R …
Test: SPR Biacore X100, His-captured recombinant human IGF-1R
Experimental: (§3) The recognition experiments were run on a Biacore X100 device using a CM5 sensor chip activated by an anti-Tag His antibody (His capture kit GE Healthcare catalogue number 28-9950-56). More than 11000 RU of antibodies are chemically grafted on the carboxymethyldextan matrix using the amine kit chemistry. The experiments were carried out at 25° C. with a flow rate of 30 μl/min using the HBS-EP buffer (GE Healthcare) as the running and sample dilution buffer.
(§4) A solution of a soluble recombinant version of the IGF-1R hetero-tetramere composed of 2a chains and the extracellular domains of 2β chains expressed with an additional C-terminal 10-His tag, based either on the sequence of the human (R&D Systems catalogue number 305-GR-50) or of the one of cynomolgus (produced in house) was injected 1 minute on the second flowcell at a dilution defined to capture around 160 RU of antigen. […] At the end of the fifth injection the running buffer was passed in order to define the dissociation rate.
(§5) The resulting sensorgrams were analysed using the Biaevaluation software with a 1:1 model. […] The quality of the fitting was assessed by a Chi2/Rmax ratio lower than 0.05 RU.

Kd	Binder
~0.2 nM	B2

Biological target: T4, soluble recombinant cynomolgus IGF-1R hetero-tetramer with C-terminal 10-His tag (produced in house) (cynomolgus monkey)
T4 construct: domain: alpha chain;domain: extracellular domain of the beta chain; Produced in house; also called Macaca IGF-1R; soluble monkey IGF-1R ECD
Test: SPR Biacore X100, His-captured recombinant cynomolgus IGF-1R
Experimental: as §3, §4, §5

Kd	Binder
~0.2 nM	B2

Biological target: T3, soluble recombinant human IGF-1R …
Test: SPR Biacore X100, His-captured soluble h-IGF-1R (about 600 RU), mean of 4 experiments
Experimental: as §1, §2
The single cycle kinetic scheme was used to define the kinetic parameters of the binding of the anti-IGF-1R antibodies on a soluble recombinant human IGF-1R captured by its two C-terminal 10 Histidine-tag. [0637] 1—A solution of a soluble recombinant version of the human IGF-1R hetero-tetramere: 2a chains and the extracellular domains of 2β chains expressed with an additional C-terminal 10-His tag (R&D Systems catalogue number 305-GR-50) was injected during one minute on the second flowcell at a concentration of 10 μg/ml. […] [0638] 2—After the capture phase, either the running buffer was injected 5 times (90 s each injection) or a growing range of 5 concentrations of one of the six antibodies was injected (90 s each injection) on both flowcells. At the end of the fifth injection the running buffer was passed during 5 minutes in order to define the dissociation rate. [0639] 3—The surface was then generated with an injection of a 10 mM Glycine, HCl pH 1.5 buffer during 45 s.

Kd	Binder
~0.03 nM	B1
~0.075 nM	B2
~0.03 nM	B4
~0.03 nM	B6
~0.03 nM	B7

Biological target: T3, soluble recombinant human IGF-1R …
Test: SPR Biacore X100, single cycle kinetics, His-captured human IGF-1R (about 160 RU), 1:1 model
Experimental: as §3, §4, §5

Kd	Binder
0.23 nM	B2
